Source: US20210246166A1 (Bayer, published 2021)
Numbered stars: 1 amine (or outer) side, 2 acyl side, 3 side chain; on linkers, the order of the positions; unused ones are H or OH. Bridge positions count the residues as written; N and C are the ends. Square brackets hold non-standard residues; d marks the D form. Ends that are not written are not given here. * marks the point of attachment. (Me)R = N(5)-methyl-L-arginine, CN(CCC[C@H](N[*:1])C(=O)[*:2])C(=N)N; Oic = O=C(O)[C@@H]1C[C@@H]2CCCC[C@@H]2N1; Phe(4-Br) = N[C@@H](Cc1ccc(Br)cc1)C(=O)O; Pro(cis-4-F) = O=C(O)[C@@H]1C[C@H](F)CN1; Cyclopentanecarbonyl = O=C(C1CCCC1)*; Hyp = O=C(O)[C@@H]1C[C@@H](O)CN1; tBuAla = CC(C)(C)C[C@H](N)C(=O)O; Pen = CC(C)(S)[C@H](N)C(=O)O; Tle = CC(C)(C)[C@H](N)C(=O)O; NMeC = CN[C@@H](CS)C(=O)O; Orn = NCCC[C@H](N)C(=O)O; Dap = NC[C@H](N)C(=O)O; PEG2 = NCCOCCOCCC(=O)O; Sar = CNCC(=O)O

T1: recombinant human MASP1 active protease (amino acids 297-699, C-terminal His Tag) (human, UniProt P48740 297-699)
T1 sequence: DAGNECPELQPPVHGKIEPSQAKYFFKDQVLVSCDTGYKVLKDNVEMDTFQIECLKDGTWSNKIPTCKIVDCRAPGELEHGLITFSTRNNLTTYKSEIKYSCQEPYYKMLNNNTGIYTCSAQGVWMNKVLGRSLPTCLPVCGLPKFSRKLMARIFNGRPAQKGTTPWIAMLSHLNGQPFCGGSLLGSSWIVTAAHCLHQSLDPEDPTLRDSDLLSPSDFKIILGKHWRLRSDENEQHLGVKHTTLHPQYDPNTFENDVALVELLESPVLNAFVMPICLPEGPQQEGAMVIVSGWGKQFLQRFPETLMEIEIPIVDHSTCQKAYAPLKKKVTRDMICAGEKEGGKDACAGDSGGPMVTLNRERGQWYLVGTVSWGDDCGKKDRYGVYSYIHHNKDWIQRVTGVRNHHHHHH


Key:
[1] = target: T1, recombinant human MASP1 active protease …; test: cell-based or functional assay
[2] = target: recombinant human MASP2 active protease (amino acids 297-686, C-terminal His Tag) (human, UniProt O00187 297-686); test: cell-based or functional assay
Sequence of recombinant human MASP2 active protease (amino acids 297-686, C-terminal His Tag) (O00187 other isoform, or with tags, fused parts or gaps limits assumed): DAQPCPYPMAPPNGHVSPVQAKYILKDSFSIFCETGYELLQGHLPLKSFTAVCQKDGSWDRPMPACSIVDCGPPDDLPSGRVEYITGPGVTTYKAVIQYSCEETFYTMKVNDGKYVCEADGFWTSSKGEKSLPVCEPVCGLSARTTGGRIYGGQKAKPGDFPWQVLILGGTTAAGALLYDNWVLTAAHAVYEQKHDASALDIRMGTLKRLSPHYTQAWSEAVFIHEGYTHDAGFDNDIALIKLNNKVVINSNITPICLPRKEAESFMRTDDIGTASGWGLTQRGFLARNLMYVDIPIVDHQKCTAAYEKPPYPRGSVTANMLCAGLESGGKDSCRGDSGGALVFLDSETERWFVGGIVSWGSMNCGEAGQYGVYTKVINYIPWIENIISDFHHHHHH

Binder	human MASP1 IC50 [1]	human MASP2 IC50 [2]
[Sar]I[Pen]SRSLPPICIPD-OH (disulfide 3-11; N-terminus assumed; SMILES CC[C@H](C)[C@H](NC(=O)CNC)C(=O)N[C@@H]1C(=O)N[C@@H](CO)C(=O)N[C@@H](CCCNC(=N)N)C(=O)N[C@@H](CO)C(=O)N[C@@H](CC(C)C)C(=O)N2CCC[C@H]2C(=O)N2CCC[C@H]2C(=O)N[C@@H]([C@@H](C)CC)C(=O)N[C@H](C(=O)N[C@H](C(=O)N2CCC[C@H]2C(=O)N[C@@H](CC(=O)O)C(=O)O)[C@@H](C)CC)CSSC1(C)C) [Example 402: ((N-Me)G)-I-(Pen)+SRSLPPIC+IPD-OH]	58 nM	2100 nM
GICSRSLP[Pro(cis-4-F)]ICIPD-OH (disulfide 3-11; N-terminus assumed; SMILES CC[C@H](C)[C@H](NC(=O)CN)C(=O)N[C@H]1CSSC[C@@H](C(=O)N[C@H](C(=O)N2CCC[C@H]2C(=O)N[C@@H](CC(=O)O)C(=O)O)[C@@H](C)CC)NC(=O)[C@H]([C@@H](C)CC)NC(=O)[C@@H]2C[C@H](F)CN2C(=O)[C@@H]2CCCN2C(=O)[C@H](CC(C)C)NC(=O)[C@H](CO)NC(=O)[C@H](CCCNC(=N)N)NC(=O)[C@H](CO)NC1=O) [Example 414: GIC+SRSLP-((cis-Fluoro)P)-IC+IPD-OH]	86 nM	4000 nM
AICSRSLP[Oic]I[Pen]IPN-OH (disulfide 3-11; N-terminus assumed; SMILES CC[C@H](C)[C@H](NC(=O)[C@H](C)N)C(=O)N[C@H]1CSSC(C)(C)[C@@H](C(=O)N[C@H](C(=O)N2CCC[C@H]2C(=O)N[C@@H](CC(N)=O)C(=O)O)[C@@H](C)CC)NC(=O)[C@H]([C@@H](C)CC)NC(=O)[C@@H]2C[C@@H]3CCCC[C@@H]3N2C(=O)[C@@H]2CCCN2C(=O)[C@H](CC(C)C)NC(=O)[C@H](CO)NC(=O)[C@H](CCCNC(=N)N)NC(=O)[C@H](CO)NC1=O) [Example 418: AIC+SRSLP-(Oic)-I-(Pen)+IPN-OH]	1.8 nM	130 nM
[Orn]AICSRS[tBuAla]PPI[NMeC]IPD-NH2 (disulfide 4-12; N-terminus assumed; SMILES CC[C@H](C)[C@H](NC(=O)[C@H](C)NC(=O)[C@@H](N)CCCN)C(=O)N[C@H]1CSSC[C@@H](C(=O)N[C@H](C(=O)N2CCC[C@H]2C(=O)N[C@@H](CC(=O)O)C(N)=O)[C@@H](C)CC)N(C)C(=O)[C@H]([C@@H](C)CC)NC(=O)[C@@H]2CCCN2C(=O)[C@@H]2CCCN2C(=O)[C@H](CC(C)(C)C)NC(=O)[C@H](CO)NC(=O)[C@H](CCCNC(=N)N)NC(=O)[C@H](CO)NC1=O) [Example 399: (Orn)-AIC+SRS-((tBu)A)-PPI-((N-Me)C)+IPD-NH2]	55 nM	520 nM
GICSRSLP[Hyp]ICIPD-OH (disulfide 3-11; N-terminus assumed; SMILES CC[C@H](C)[C@H](NC(=O)CN)C(=O)N[C@H]1CSSC[C@@H](C(=O)N[C@H](C(=O)N2CCC[C@H]2C(=O)N[C@@H](CC(=O)O)C(=O)O)[C@@H](C)CC)NC(=O)[C@H]([C@@H](C)CC)NC(=O)[C@@H]2C[C@@H](O)CN2C(=O)[C@@H]2CCCN2C(=O)[C@H](CC(C)C)NC(=O)[C@H](CO)NC(=O)[C@H](CCCNC(=N)N)NC(=O)[C@H](CO)NC1=O) [Example 410: GIC+SRSLP-(Hyp)-IC+IPD-OH]	76 nM	2700 nM
AICSRSLPPIC[(2S,3S)‑2‑((Amino)methyl)‑3‑methylpentanoic acid]PD-NH2 (disulfide 3-11) [Example 417: AIC+SRSLPPIC+((2S,3S)-2-((Amino)methyl)-3-methylpentanoic acid)-PD-NH2]	89 nM	17000 nM
[Sar]ICSR[Dap]LPPICIPD-OH (disulfide 3-11; N-terminus assumed; SMILES CC[C@H](C)[C@H](NC(=O)CNC)C(=O)N[C@H]1CSSC[C@@H](C(=O)N[C@H](C(=O)N2CCC[C@H]2C(=O)N[C@@H](CC(=O)O)C(=O)O)[C@@H](C)CC)NC(=O)[C@H]([C@@H](C)CC)NC(=O)[C@@H]2CCCN2C(=O)[C@@H]2CCCN2C(=O)[C@H](CC(C)C)NC(=O)[C@H](CN)NC(=O)[C@H](CCCNC(=N)N)NC(=O)[C@H](CO)NC1=O) [Example 413: ((N-Me)G)-IC+SR-(Dap)-LPPIC+IPD-OH]	78 nM	2000 nM

Second part, the binder after the results:

human MASP1 IC50 [1]	human MASP2 IC50 [2]	Binder
69 nM	32 nM	Cyclopentanecarbonyl-ICSRS[tBuAla]PPI[NMeC]I-NH2 (disulfide 2-10; SMILES CC[C@H](C)[C@H](NC(=O)[C@@H]1CSSC[C@H](NC(=O)[C@@H](NC(=O)C2CCCC2)[C@@H](C)CC)C(=O)N[C@@H](CO)C(=O)N[C@@H](CCCNC(=N)N)C(=O)N[C@@H](CO)C(=O)N[C@@H](CC(C)(C)C)C(=O)N2CCC[C@H]2C(=O)N2CCC[C@H]2C(=O)N[C@@H]([C@@H](C)CC)C(=O)N1C)C(N)=O) [Example 408: (Cyclopentanecarboxylic acid)-IC+SRS-((tBu)A)-PPI-((N-Me)C)+I-NH2]
59 nM	740 nM	AICS[(Me)R]S[tBuAla]PPI[Pen]IPD-NH2 (disulfide 3-11; N-terminus assumed; SMILES CC[C@H](C)[C@H](NC(=O)[C@H](C)N)C(=O)N[C@H]1CSSC(C)(C)[C@@H](C(=O)N[C@H](C(=O)N2CCC[C@H]2C(=O)N[C@@H](CC(=O)O)C(N)=O)[C@@H](C)CC)NC(=O)[C@H]([C@@H](C)CC)NC(=O)[C@@H]2CCCN2C(=O)[C@@H]2CCCN2C(=O)[C@H](CC(C)(C)C)NC(=O)[C@H](CO)NC(=O)[C@H](CCCN(C)C(=N)N)NC(=O)[C@H](CO)NC1=O) [Example 403: AIC+S-((Me)R)-S-((tBu)A)-PPI-(Pen)+IPD-NH2]
76 nM	2500 nM	AICSRS[Tle]PPICIPD-NH2 (disulfide 3-11; N-terminus assumed; SMILES CC[C@H](C)[C@H](NC(=O)[C@H](C)N)C(=O)N[C@H]1CSSC[C@@H](C(=O)N[C@H](C(=O)N2CCC[C@H]2C(=O)N[C@@H](CC(=O)O)C(N)=O)[C@@H](C)CC)NC(=O)[C@H]([C@@H](C)CC)NC(=O)[C@@H]2CCCN2C(=O)[C@@H]2CCCN2C(=O)[C@H](C(C)(C)C)NC(=O)[C@H](CO)NC(=O)[C@H](CCCNC(=N)N)NC(=O)[C@H](CO)NC1=O) [Example 411: AIC+SRS-((tBu)G)-PPI-C+IPD-NH2]
87 nM	190 nM	GICSRS[Phe(4-Br)]PPICIPD-OH (disulfide 3-11; N-terminus assumed; SMILES CC[C@H](C)[C@H](NC(=O)CN)C(=O)N[C@H]1CSSC[C@@H](C(=O)N[C@H](C(=O)N2CCC[C@H]2C(=O)N[C@@H](CC(=O)O)C(=O)O)[C@@H](C)CC)NC(=O)[C@H]([C@@H](C)CC)NC(=O)[C@@H]2CCCN2C(=O)[C@@H]2CCCN2C(=O)[C@H](Cc2ccc(Br)cc2)NC(=O)[C@H](CO)NC(=O)[C@H](CCCNC(=N)N)NC(=O)[C@H](CO)NC1=O) [Example 416: GIC+SRS-((4-Bromo)F)-PPIC+IPD-OH]
71 nM	570 nM	[PEG2]GICSRSLPPICIPD-OH (disulfide 4-12; N-terminus assumed; SMILES CC[C@H](C)[C@H](NC(=O)CNC(=O)CCOCCOCCN)C(=O)N[C@H]1CSSC[C@@H](C(=O)N[C@H](C(=O)N2CCC[C@H]2C(=O)N[C@@H](CC(=O)O)C(=O)O)[C@@H](C)CC)NC(=O)[C@H]([C@@H](C)CC)NC(=O)[C@@H]2CCCN2C(=O)[C@@H]2CCCN2C(=O)[C@H](CC(C)C)NC(=O)[C@H](CO)NC(=O)[C@H](CCCNC(=N)N)NC(=O)[C@H](CO)NC1=O) [Example 409: (PEG1(10 atoms))-GIC+SRSLPPIC+IPD-OH]
54 nM	22 nM	Pivalic-ICSRS[tBuAla]PPI[NMeC]I-NH2 (disulfide 2-10) [Example 398: (Pivalic)-IC+SRS-((tBu)A)-PPI-((N-Me)C)+I-NH2]
77 nM	5000 nM	[Sar]ICKRS[tBuAla]PPI[Pen]IP-NH2 (disulfide 3-11; N-terminus assumed; SMILES CC[C@H](C)[C@H](NC(=O)CNC)C(=O)N[C@H]1CSSC(C)(C)[C@@H](C(=O)N[C@H](C(=O)N2CCC[C@H]2C(N)=O)[C@@H](C)CC)NC(=O)[C@H]([C@@H](C)CC)NC(=O)[C@@H]2CCCN2C(=O)[C@@H]2CCCN2C(=O)[C@H](CC(C)(C)C)NC(=O)[C@H](CO)NC(=O)[C@H](CCCNC(=N)N)NC(=O)[C@H](CCCCN)NC1=O) [Example 412: ((N-Me)G)-IC+KRS-((tBu)A)-PPI-(Pen)+IP-NH2]
63 nM	980 nM	[Sar][Orn][Orn][Orn]ICSRSLP[Oic]I[Pen]IP-NH2 (disulfide 6-14; N-terminus assumed; SMILES CC[C@H](C)[C@H](NC(=O)[C@H](CCCN)NC(=O)[C@H](CCCN)NC(=O)[C@H](CCCN)NC(=O)CNC)C(=O)N[C@H]1CSSC(C)(C)[C@@H](C(=O)N[C@H](C(=O)N2CCC[C@H]2C(N)=O)[C@@H](C)CC)NC(=O)[C@H]([C@@H](C)CC)NC(=O)[C@@H]2C[C@@H]3CCCC[C@@H]3N2C(=O)[C@@H]2CCCN2C(=O)[C@H](CC(C)C)NC(=O)[C@H](CO)NC(=O)[C@H](CCCNC(=N)N)NC(=O)[C@H](CO)NC1=O) [Example 405: ((N-Me)G)-(Orn)-(Orn)-(Orn)-IC+SRSLP-(Oic)-I-(Pen)+IP-NH2]
5.1 nM	100 nM	[Sar]ICSRSLP[Oic]I[Pen]I[5‑Azaspiro(2.4)heptane‑1‑carboxylic acid]-OH (disulfide 3-11) [Example 419: ((N-Me)G)-IC+SRSLP-(Oic)-I-(Pen)+I-((5-Azaspiro[2.4]heptane-1-carboxylic acid)-OH]
